Biological target: T1, human α-CGRP 1-36-COOH (human)
T1 construct: free C-terminal carboxyl, not amidated; also called 1-36 (not amidated at the C-terminus)
T1 peptide: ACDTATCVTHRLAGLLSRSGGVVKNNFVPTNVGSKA
Assay: Biacore competition, 50 nM G1 Fab with 10 µM peptide, read on human α-CGRP chip
Source text: Y axis represents percentage of binding blocked by the presence of the competing peptide compared with the binding in the absence of the competing peptide. […]

B1: antibody G1 Fab fragment (Fab, V domains shown)
VH: EVQLVESGGGLVQPGGSLRLSCAASGFTFSNYWISWVRQAPGKGLEWVAEIRSESDASATHYAEAVKGRFTISRDNAKNSLYLQMNSLRAEDTAVYYCLAYFDYGLAIQNYWGQGTLVTVSS
VL: EIVLTQSPATLSLSPGERATLSCKASKRVTTYVSWYQQKPGQAPRLLIYGASNRYLGIPARFSGSGSGTDFTLTISSLEPEDFAVYYCSQSYNYPYTFGQGTKLEIK
percentage of binding blocked by competing peptide: ~40%

— patent US20200148761A1 (Teva, published 2020)
